Changes are numbered by the printed parent chain. Names may count otherwise.

In series [1] the target is Flag-AFF1 F1063A+Y1145A+V1146A+V1152A, full length (UniProt P51825).
Series [2] concerns the molecule itself. As to the kind of experiment: SEC; analytical gel filtration, Superdex 75 10/300 increase, 25 mM Tris pH 8.0, 150 mM NaCl, 2 mM DTT; 6 mg/ml, 100 μl injected; self-association, dimer or monomer by elution volume.
Series [3] addresses Flag-AFF4 F1014A, full length (human) (UniProt Q9UHB7).
The target of series [4] is Flag-AFF4 Y1096A, full length (human) (UniProt Q9UHB7).

B1: Flag-AFF1 F1063A+Y1145A+V1146A+V1152A, full length (natural protein)
chain: MAAQSSLYNDDRNLLRIREKERRNQEAHQEKEAFPEKIPLFGEPYKTAKGDELSSRIQNMLGNYEEVKEFLSTKSHTHRLDASENRLGKPKYPLIPDKGSSIPSSSFHTSVHHQSIHTPASGPLSVGNISHNPKMAQPRTEPMPSLHAKSCGPPDSQHLTQDRLGQEGFGSSHHKKGDRRADGDHCASVTDSAPERELSPLISLPSPVPPLSPIHSNQQTLPRTQGSSKVHGSSNNSKGYCPAKSPKDLAVKVHDKETPQDSLVAPAQPPSQTFPPPSLPSKSVAMQQKPTAYVRPMDGQDQAPSESPELKPLPEDYRQQTFEKTDLKVPAKAKLTKLKMPSQSVEQTYSNEVHCVEEILKEMTHSWPPPLTAIHTPSTAEPSKFPFPTKDSQHVSSVTQNQKQYDTSSKTHSNSQQGTSSMLEDDLQLSDSEDSDSEQTPEKPPSSSAPPSAPQSLPEPVASAHSSSAESESTSDSDSSSDSESESSSSDSEENEPLETPAPEPEPPTTNKWQLDNWLTKVSQPAAPPEGPRSTEPPRRHPESKGSSDSATSQEHSESKDPPPKSSSKAPRAPPEAPHPGKRSCQKSPAQQEPPQRQTVGTKQPKKPVKASARAGSRTSLQGEREPGLLPYGSRDQTSKDKPKVKTKGRPRAAASNEPKPAVPPSSEKKKHKSSLPAPSKALSGPEPAKDNVEDRTPEHFALVPLTESQGPPHSGSGSRTSGCRQAVVVQEDSRKDRLPLPLRDTKLLSPLRDTPPPQSLMVKITLDLLSRIPQPPGKGSRQRKAEDKQPPAGKKHSSEKRSSDSSSKLAKKRKGEAERDCDNKKIRLEKEIKSQSSSSSSSHKESSKTKPSRPSSQSSKKEMLPPPPVSSSSQKPAKPALKRSRREADTCGQDPPKSASSTKSNHKDSSIPKQRRVEGKGSRSSSEHKGSSGDTANPFPVPSLPNGNSKPGKPQVKFDKQQADLHMREAKKMKQKAELMTDRVGKAFKYLEAVLSFIECGIATESESQSSKSAYSVYSETVDLIKFIMSLKSFSDATAPTQEKIFAVLCMRCQSILNMAMARCKKDIAIKYSRTLNKHFESSSKVAQAPSPCIASTGTPSPLSPMPSPASSVGSQSSAGSVGSSGVAATISTPVTIQNMTSSAATITSHALTAFDLWEQAEALTRKNKEFFARLSTNVCTLALNSSLVDLVHYTRQGFQQLQELTKTP
As for B1, the HIV-LTR-luciferase reporter in NH1 cells, overexpressed Flag-AFF1 mutant against wild-type AFF1 (fold less than wild-type AFF1) in series [1] was 1.

B2: AFF1-THD (953-1210), wild type (domain or fragment, UniProt P51825 953-1210, looked up)
chain: GKPQVKFDKQQADLHMREAKKMKQKAELMTDRVGKAFKYLEAVLSFIECGIATESESQSSKSAYSVYSETVDLIKFIMSLKSFSDATAPTQEKIFAVLCMRCQSILNMAMFRCKKDIAIKYSRTLNKHFESSSKVAQAPSPCIASTGTPSPLSPMPSPASSVGSQSSAGSVGSSGVAATISTPVTIQNMTSSYVTITSHVLTAFDLWEQAEALTRKNKEFFARLSTNVCTLALNSSLVDLVHYTRQGFQQLQELTKTP
notes: AFF1 THD, residues 953-1210; the limits 953-1210 fit human AFF1; also called wild-type AFF1-THD; source: E. coli BL21 (DE3), purified (Ni-NTA, Hi-Trap SP HP, TEV digestion, Superdex 200); not shown: His6, N-terminal, cleaved
Turning to B2, in series [2], the stoichiometry N (usually the number of molecules, sites or subunits per partner or assembly) amounted to 2.

B3: AFF1-THD F1063A (domain or fragment, UniProt P51825 953-1210, looked up)
chain: B2 chain with F111A
notes: AFF1 THD, residues 953-1210, with F1063A; also called AFF1^F1063A; source: E. coli BL21 (DE3), purified (Ni-NTA, Hi-Trap SP HP, TEV digestion, Superdex 200); not shown: His6, N-terminal, cleaved
As to B3, the binding result in series [2] was “binds”.

B4: AFF1-THD Y1145A (domain or fragment, UniProt P51825 953-1210, looked up)
chain: B2 chain with Y193A
notes: AFF1 THD, residues 953-1210, with Y1145A; also called AFF1^Y1145A; source: E. coli BL21 (DE3), purified (Ni-NTA, Hi-Trap SP HP, TEV digestion, Superdex 200); not shown: His6, N-terminal, cleaved
As to B4, the binding result in series [2] is given as “binds”.

B5: AFF1-THD F1063A+Y1145A (domain or fragment, UniProt P51825 953-1210, looked up)
chain: B2 chain with F111A, Y193A
notes: AFF1 THD, residues 953-1210, with F1063A and Y1145A; source: E. coli BL21 (DE3), purified (Ni-NTA, Hi-Trap SP HP, TEV digestion, Superdex 200); not shown: His6, N-terminal, cleaved
Turning to B5, the binding result in series [2] was “binds”.

B6: Flag-AFF4 F1014A, full length (natural protein)
chain: MNREDRNVLRMKERERRNQEIQQGEDAFPPSSPLFAEPYKVTSKEDKLSSRIQSMLGNYDEMKDFIGDRSIPKLVAIPKPTVPPSADEKSNPNFFEQRHGGSHQSSKWTPVGPAPSTSQSQKRSSGLQSGHSSQRTSAGSSSGTNSSGQRHDRESYNNSGSSSRKKGQHGSEHSKSRSSSPGKPQAVSSLNSSHSRSHGNDHHSKEHQRSKSPRDPDANWDSPSRVPFSSGQHSTQSFPPSLMSKSNSMLQKPTAYVRPMDGQESMEPKLSSEHYSSQSHGNSMTELKPSSKAHLTKLKIPSQPLDASASGDVSCVDEILKEMTHSWPPPLTAIHTPCKTEPSKFPFPTKESQQSNFGTGEQKRYNPSKTSNGHQSKSMLKDDLKLSSSEDSDGEQDCDKTMPRSTPGSNSEPSHHNSEGADNSRDDSSSHSGSESSSGSDSESESSSSDSEANEPSQSASPEPEPPPTNKWQLDNWLNKVNPHKVSPASSVDSNIPSSQGYKKEGREQGTGNSYTDTSGPKETSSATPGRDSKTIQKGSESGRGRQKSPAQSDSTTQRRTVGKKQPKKAEKAAAEEPRGGLKIESETPVDLASSMPSSRHKAATKGSRKPNIKKESKSSPRPTAEKKKYKSTSKSSQKSREIIETDTSSSDSDESESLPPSSQTPKYPESNRTPVKPSSVEEEDSFFRQRMFSPMEEKELLSPLSEPDDRYPLIVKIDLNLLTRIPGKPYKETEPPKGEKKNVPEKHTREAQKQASEKVSNKGKRKHKNEDDNRASESKKPKTEDKNSAGHKPSSNRESSKQSAAKEKDLLPSPAGPVPSKDPKTEHGSRKRTISQSSSLKSSSNSNKETSGSSKNSSSTSKQKKTEGKTSSSSKEVKEKAPSSSSNCPPSAPTLDSSKPRRTKLVFDDRNYSADHYLQEAKKLKHNADALSDRFEKAVYYLDAVVSFIECGNALEKNAQESKSPFPMYSETVDLIKYTMKLKNYLAPDATAADKRLTVLCLRCESLLYLRLAKLKKENALKYSKTLTEHLKNSYNNSQAPSPGLGSKAVGMPSPVSPKLSPGNSGNYSSGASSASASGSSVTIPQKIHQMAASYVQVTSNFLYATEIWDQAEQLSKEQKEFFAELDKVMGPLIFNASIMTDLVRYTRQGLHWLRQDAKLIS
As to B6, in series [3], the HIV-LTR-luciferase reporter in NH1 cells, overexpressed Flag-AFF4 mutant against wild type (% less than wild type) turned out to be 10.

B7: Flag-AFF4 Y1096A, full length (natural protein)
chain: B6 chain with A1014F, Y1096A
Regarding B7, the HIV-LTR-luciferase reporter in NH1 cells, overexpressed Flag-AFF4 mutant against wild type (fold less than wild type) in series [4] was 1.

B8: human AFF4-THD (902-1163), wild type (domain or fragment, UniProt Q9UHB7 902-1163, looked up)
chain: RRTKLVFDDRNYSADHYLQEAKKLKHNADALSDRFEKAVYYLDAVVSFIECGNALEKNAQESKSPFPMYSETVDLIKYTMKLKNYLAPDATAADKRLTVLCLRCESLLYLRLFKLKKENALKYSKTLTEHLKNSYNNSQAPSPGLGSKAVGMPSPVSPKLSPGNSGNYSSGASSASASGSSVTIPQKIHQMAASYVQVTSNFLYATEIWDQAEQLSKEQKEFFAELDKVMGPLIFNASIMTDLVRYTRQGLHWLRQDAKLIS
notes: AFF4 THD (TPRL with Handle Region Dimerization Domain, C-terminal homology domain), human, residues 902-1163; A selenomethionyl form was used for phasing only; The general purification text tells of TEV digestion and removal of the His6-tag, but only the N-terminal tag of AFF1-THD is called removable; also called AFF-THD; THD of AFF4; source: E. coli BL21 (DE3), purified (Ni-NTA, Hi-Trap SP HP, …)
On to B8, for which the “stoichiometry N” value in series [2] worked out at 2.

B9: AFF4-THD T1100A+Y1096F (domain or fragment, human, UniProt Q9UHB7 902-1163, looked up)
chain: B8 chain with Y195F, T199A
notes: AFF4 THD, human, residues 902-1163, with T1100A and Y1096F; PDB 6K7P is the wild-type parent of the same limits; source: E. coli BL21 (DE3), purified (Ni-NTA, Hi-Trap SP HP, Superdex 200)
B9: the binding result in series [2] is on record as “binds”.

B10: AFF4-THD V1097A (domain or fragment, human, UniProt Q9UHB7 902-1163, looked up)
chain: B8 chain with V196A
notes: AFF4 THD, human, residues 902-1163, with V1097A; PDB 6K7P is the wild-type parent of the same limits; also called AFF4-THD^Val1097A; Val1097A; source: E. coli BL21 (DE3), purified (Ni-NTA, Hi-Trap SP HP, Superdex 200)
B10: the binding result in series [2] is given as “binds”.

B11: AFF4-THD Y1024A (domain or fragment, human, UniProt Q9UHB7 902-1163, looked up)
chain: B8 chain with Y123A
notes: AFF4 THD, human, residues 902-1163, with Y1024A; PDB 6K7P is the wild-type parent of the same limits; source: E. coli BL21 (DE3), purified (Ni-NTA, Hi-Trap SP HP, Superdex 200)
B11: the binding result in series [2] is “binds”.

B12: AFF4-THD S1025A (domain or fragment, human, UniProt Q9UHB7 902-1163, looked up)
chain: B8 chain with S124A
notes: AFF4 THD, human, residues 902-1163, with S1025A; PDB 6K7P is the wild-type parent of the same limits; source: E. coli BL21 (DE3), purified (Ni-NTA, Hi-Trap SP HP, Superdex 200)
B12: the binding result in series [2] is reported as “binds”.

The record behind these values is article PMC7026398, “Structural and functional insight into the effect of AFF4 dimerization on activation of HIV-1 proviral transcription” (Cell Discovery, 2020).
